Laboratory results published in patent US20170210824A1 (SALK INSTITUTE FOR BIOLOGICAL STUDIES, published 2017).
Where no end group is shown, it is not given here. [ ]: non-standard residue; d: D form. pY = N[C@@H](Cc1ccc(OP(=O)(O)O)cc1)C(=O)O

T1: Eck (Ephrin A2) pY588 peptide (CLKPLKTpYVD)
T1 construct: also called Eck/EphA2 pTyr peptide
T1 peptide: CLKPLKT[pY]VD

T2: Nck pY105 peptide (CGERLpYDLNMPAYVK)
T2 construct: also called pTyr (NCK) peptide; pTyr peptide (Nck pY105)
T2 peptide: CGERL[pY]DLNMPAYVK

T3: FAK pY397 peptide (AVSVSETDDpYAEIIDEEDTYT) (phosphotyrosine at position 10 (pY397))
T3 construct: also called FAK pTyr peptide
T3 peptide: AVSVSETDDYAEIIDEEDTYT

T4: Nck Y105 peptide (CGERLYDLNMPAYVK)
T4 construct: also called unphosphorylated Nck peptide
T4 peptide: CGERLYDLNMPAYVK

T5: Eck (Ephrin A2) Y588 peptide (CLKPLKTYVD)
T5 construct: also called unphosphorylated Eck peptide
T5 peptide: CLKPLKTYVD

T6: ACLY (ATP-citrate lyase), 3-pHis on H760 (mammalian, UniProt P53396 1-1101, 3-phosphohistidine at H760)
T6 sequence (looked up): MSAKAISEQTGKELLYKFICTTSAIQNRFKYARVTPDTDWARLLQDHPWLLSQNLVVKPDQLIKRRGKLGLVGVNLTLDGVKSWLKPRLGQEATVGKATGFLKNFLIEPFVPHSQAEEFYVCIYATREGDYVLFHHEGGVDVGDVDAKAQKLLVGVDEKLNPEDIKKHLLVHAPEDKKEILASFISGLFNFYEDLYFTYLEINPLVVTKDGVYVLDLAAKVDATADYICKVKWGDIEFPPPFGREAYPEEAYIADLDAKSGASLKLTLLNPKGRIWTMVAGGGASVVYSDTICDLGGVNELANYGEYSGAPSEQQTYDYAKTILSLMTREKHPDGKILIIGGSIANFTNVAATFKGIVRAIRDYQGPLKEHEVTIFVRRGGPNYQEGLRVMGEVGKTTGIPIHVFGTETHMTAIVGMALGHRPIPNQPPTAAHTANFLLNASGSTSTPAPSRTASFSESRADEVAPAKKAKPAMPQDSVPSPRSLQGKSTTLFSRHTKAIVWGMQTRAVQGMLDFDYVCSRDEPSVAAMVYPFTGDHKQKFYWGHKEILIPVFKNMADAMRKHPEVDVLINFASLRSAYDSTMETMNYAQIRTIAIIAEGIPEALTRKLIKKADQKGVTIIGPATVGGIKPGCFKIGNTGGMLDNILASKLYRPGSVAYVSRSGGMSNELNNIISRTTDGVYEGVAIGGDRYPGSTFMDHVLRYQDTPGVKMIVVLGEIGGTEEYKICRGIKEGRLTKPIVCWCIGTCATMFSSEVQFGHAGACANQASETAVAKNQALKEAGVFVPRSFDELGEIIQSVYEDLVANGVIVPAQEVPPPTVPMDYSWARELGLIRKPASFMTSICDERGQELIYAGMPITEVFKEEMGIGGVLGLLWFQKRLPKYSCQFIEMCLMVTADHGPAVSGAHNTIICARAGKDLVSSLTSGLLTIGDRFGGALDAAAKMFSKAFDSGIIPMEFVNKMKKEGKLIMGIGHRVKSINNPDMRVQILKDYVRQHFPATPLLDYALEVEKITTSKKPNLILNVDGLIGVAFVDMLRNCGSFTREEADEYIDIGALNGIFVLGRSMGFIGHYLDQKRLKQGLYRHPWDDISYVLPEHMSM

B1: 3-pHis mAb SC39-4 (antibody, V domains shown)
VH: ESGGRLVTPGGSLTLTCTVSGFSLSRYNMGWVRQAPGKGLEWIGWIPFRGSLKYATWATGRFTISRTSTTVDLRMTGLTAADTATYFCVRSSDGFDLWGPGTLVTVSS
VL: QFVMTQTPASVEAVVGGTVTIKCQASRDTGDGLIWYQQKPGQPPKRLIYKASTVASGVPSRFKGRGSGTDFTLTISDLECADAATYYCHSNFYNRWTYGNAFGGGTEVVVKG
notes: Rabbit hybridoma monoclonal IgG; also called anti-3-pHis mAb SC39-4; SC39s (subclones of MC39)
B2: 3-pHis mAb SC44-8 (antibody, V domains shown)
VH: ESGRGLVQPGGSLTLTCTASGFSIDSYGFSWVRQAPGKGLEHIGYLTAGGRAFYASWAKSRSTITRNTNENTVTLKMTSLTAADTATYFCAKLGSGNPVAIWGPGTLVTVSS
VL: DPVMTPTPSFTSAAVGGTVTINCQSSQSVWRNKNLAWYQQKPGQPPKRLIYAIATLDSGVPSRFSGSGSGTQFTLTISDVQCDDAATYYCVGHYGSENDAYYAFGGGTEVVVKG
notes: Rabbit hybridoma monoclonal IgG; also called SC44s (subclones of MC44)

Tests used:
[1] = molecular target: T7, FLAG-NME1 with 1-pHis, in stably transfected HEK293 cells (UniProt P15531 1-152, limits assumed, 1-phosphohistidine (generated in vivo)); assay: immunoblot of FLAG-NME1 293 cell lysates
T7 construct: not shown: FLAG tag
Method: (§1) Immunoblotting with anti-pHis antibodies: In general, immunoblotting with anti-pHis antibodies was performed with modifications to standard procedures to help preserve pHis for detection. Buffers were adjusted to pH 8-9 to stabilize pHis and methods were modified to avoid heating samples. Protein samples were prepared in pH 8.8 sample buffer (5×=10% SDS, 250 mM Tris-HCl, pH 8.8, 0.02% Bromophenol blue, 50% glycerol, 50 mM EDTA, 500 mM DTT) for electrophoresis. Mammalian whole cell lysates were prepared by rinsing 70-100% confluent 10 cm² dishes twice with 5 ml cold TD buffer (TBS −/−, pH 8). Cells were scraped directly into 2× pH 8.8 sample buffer, incubated on ice and a cup horn sonicator was used (3-5×5 sec bursts) to disrupt cells and shear DNA. Lysates were clarified by centrifugation (14,000×g for 5-15 min at 4° C.) and analyzed immediately using freshly prepared Bis-Tris polyacrylamide minigels with a modified, pH 8.8 stacking gel and either 10% or 12.5% resolving gels. Electrophoresis buffer recipes were as follows: Running Buffer: (1×20 L, pH 8.5) 20 g SDS, 60 g Trizma Base, 288 g glycine, dH₂0 to 20 L, Transfer Buffer: (1×4 L, pH 8.5) 56.7 g glycine, 4 g SDS, 12 g Trizma Base, 800 ml MeOH, dH₂0 to 4 L. All electrophoresis steps were performed at 4° C. and samples were resolved at 90-100V for 2-3 hr. […]

[2] = molecular target: T1, Eck (Ephrin A2) pY588 peptide …; assay: pTyr peptide dot blot
[3] = molecular target: T2, Nck pY105 peptide (CGERLpYDLNMPAYVK); assay: pTyr peptide dot blot
[4] = molecular target: T3, FAK pY397 peptide …; assay: pTyr peptide dot blot
[5] = molecular target: T4, Nck Y105 peptide (CGERLYDLNMPAYVK); assay: pTyr peptide dot blot
[6] = molecular target: T5, Eck (Ephrin A2) Y588 peptide …; assay: pTyr peptide dot blot
[7] = molecular target: T8, phospho-PGAM (phosphoglycerate mutase with 3-pHis on H11) (human, UniProt P18669 1-254, 3-phosphohistidine at H11); assay: immunoblot of HeLa and FLAG-NME1 293 cell lysates
T8 construct: Used both for the purified recombinant protein and for the endogenous protein in 293 cell lysates; also called pPGAM; in vitro phosphorylated PGAM
Method: FIGS. 6A-6E. 3-pHis Antibody Screening. (FIG. 6A) High throughput, slot blot screening of 3-pHis hybridoma subclones. Cell supernatants containing 3-pHis mAbs were screened as described using lysates from E. coli transformed with GST-PGAM. (FIG. 6B) Representative immunoblots using indicated subclones are shown. E. coli lysates identical to those used in ([…]) were treated with and without heating to 95° C. for 10 min to determine if the detected bands were heat-sensitive. Bacterial (FIG. 6B) and mammalian SCS (FIG. 6C) is detected by 3-pHis mAb SC44-8. (FIG. 6C) Mammalian cell lysates from HeLa and FLAG-NME1 293 cells were probed with mAb SC44-8. Phospho-SCS and ACLY, but not PGAM, is recognized by this mAb. (FIG. 6D) SCS H299 (SEQ ID NO: 69) is aligned with ACLY H760 (SEQ ID NO: 68) to highlight amino acids the flanking the pHis site are identical and have a G-pH-A-H-A motif that is different from the pHis site on PGAM at H11 (SEQ ID NO:70). […]
Immunoblotting with anti-pHis antibodies: In general, immunoblotting with anti-pHis antibodies was performed with modifications to standard procedures to help preserve pHis for detection. […] Lysates were clarified by centrifugation (14,000×g for 5-15 min at 4° C.) and analyzed immediately using freshly prepared Bis-Tris polyacrylamide minigels with a modified, pH 8.8 stacking gel and either 10% or 12.5% resolving gels.

[8] = molecular target: T9, mammalian SCS (succinyl-CoA synthetase), 3-pHis on H299 (mammalian, UniProt P53597 41-346, 3-phosphohistidine at H299); assay: immunoblot of mammalian cell lysates
T9 construct: also called Phospho-SCS
Method: as §1

[9] = molecular target: T6, ACLY (ATP-citrate lyase), 3-pHis on H760; assay: immunoblot of mammalian cell lysates
Method: as §1

T7 sequence (P15531 whole entry): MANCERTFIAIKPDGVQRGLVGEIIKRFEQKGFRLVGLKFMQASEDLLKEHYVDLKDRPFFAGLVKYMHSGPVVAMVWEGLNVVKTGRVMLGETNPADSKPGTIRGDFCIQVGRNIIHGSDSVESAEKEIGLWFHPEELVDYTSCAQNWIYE
T9 sequence (P53597 41-346): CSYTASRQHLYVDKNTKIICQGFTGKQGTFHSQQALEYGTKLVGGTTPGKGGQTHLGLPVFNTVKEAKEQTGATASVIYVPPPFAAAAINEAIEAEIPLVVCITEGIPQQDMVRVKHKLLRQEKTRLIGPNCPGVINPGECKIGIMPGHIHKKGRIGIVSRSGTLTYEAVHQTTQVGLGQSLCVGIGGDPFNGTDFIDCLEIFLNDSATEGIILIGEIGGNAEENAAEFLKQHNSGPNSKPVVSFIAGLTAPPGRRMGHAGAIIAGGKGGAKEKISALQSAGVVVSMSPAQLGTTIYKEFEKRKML
T8 sequence (P18669 whole entry): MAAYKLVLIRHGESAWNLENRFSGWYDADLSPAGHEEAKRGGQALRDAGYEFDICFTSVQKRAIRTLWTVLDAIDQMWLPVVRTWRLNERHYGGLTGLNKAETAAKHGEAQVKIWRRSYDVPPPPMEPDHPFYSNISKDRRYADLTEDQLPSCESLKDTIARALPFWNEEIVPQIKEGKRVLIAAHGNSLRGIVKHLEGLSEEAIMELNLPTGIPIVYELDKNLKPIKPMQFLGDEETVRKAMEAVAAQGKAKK

Binder | binding result [1] | binding result [2] | binding result [3] | binding result [4] | binding result [5] | binding result [6] | binding result [7] | binding result [8] | binding result [9]
B1 | no binding | no binding | no binding | no binding | no binding | no binding |  |  | 
B2 |  | no binding | no binding | no binding | no binding | no binding | no binding | binds | binds
